In patent US20030207791A1 (published 2003):

Key:
gel filtration = biological target: the molecule itself; test: gel filtration
[1] = biological target: the molecule itself; test: gel filtration and in vitro cross-linking of the purified domain

B1: AML1-ETO (other, UniProt Q01196 1-177, looked up)
chain: MRIPVDASTSRRFTPPSTALSPGKMSEALPLGAPDAGAALAGKLRSGDRSMVEVLADHPGELVRTDSPNFLCSVLPTHWRCNKTLPIAFKVVALGDVPDGTLVTVMAGNDENYSAELRNATAAMKNQVARFNDLRFVGRSGRGKSFTLTITVFTNPPQVATYHRAIKITVDGPREPRDRTEKHSTMPDSPVDVKTQSRLTPPTMPPPPTTQGAPRTSSFTPTTLTNGTSHSPTALNGAPSPPNGFSNGPSSSSSSSLANQQLPPACGARQLSKLKRFLTTLQQFGNDISPEIGERVRTLVLGLVNSTLTIEEFHSKLQEATNFPLRPFVIPFLKANLPLLQRELLHCARLAKQNPAQYLAQHEQLLLDASTTSPVDSSELLLDVNENGKRRTPDRTKENGFDREPLHSEHPSKRPCTISPGQRYSPNNGLSYQPNGLPHPTPPPPQHYRLDDMAIAHHYRDSYRHPSHRDLRDRNRPMGLHGTRQEEMIDHRLTDREWAEEWKHLDHLLNCIMDMVEKTRRSLTVLRRCQEADREELNYWIRRYSDAEDLKKGGGSSSSHSRQQSPVNPDPVALDAHREFLHRPASGYVPEEIWKKAEEAVNEVKRQAMTELQKAVSEAERKAHDMITTERAKMERTVAEAKRQAAEDALAVINQQEDSSESCWNCGRKASETCSGCNTARYCGSFCQHKDWEKHHHICGQTLQAQQQGDTPAVSSSVTPNSGAGSPMDTPPAATPRSTTPGTPSTIETTPR
notes: The plasmid list names pcDNA3-myc-AML1-ETO; Also made in bacteria as an MBP fusion, MBP removed by factor Xa; also called myc-AML1-ETO
- binding result (gel filtration): binds

B2: isolated coiled coil domain of PML (other)
chain: SELKCDISAEIQQRQEELDAMTQALQALQEQDSAEGAVHAQMHAAVGQLGRARAETEELIRERVRQVVAHVRAQERELLEAVDARYQRDYEEMASRLGRLDAVLQRIRTGSALVQRMKCYASDQEVLDMHGFLRQALCRLR
notes: Expressed in BL21 as a GST fusion and freed by site-specific cleavage; also called CC; CC domain of PML
- binding result [1]: binds
